Experimental data reported in the supplement of paper PMC7125110.
± gives the standard error. This sample holds only a part of the variants without activity.

B1: glmS ribozyme (parent)
chain: AUAAAAGCGCCAGAACUACAGAAAUGUAGUUGACGAGGAGGAGGUUUAUCGAAUUUUCGGCGGAUGCCUCCAAA

Assays:
Conditions in all cases: with glucosamine-6-phosphate
glucosamine-6-phosphate [1] = variants of: B1; test: self-cleavage kobs at 40 uM GlcN6P; higher = faster cleavage; RNA array
Procedure, shortened: (§1)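 Glucosamine-6-phosphate (40 μM to 10 mM) in HEPES/KCl/Mg(OAc)2 buffer was flowed over sequenced MiSeq chips, and tiles were imaged over ~14 h. Barcoded ribozyme variants there had been transcribed in situ by E. coli RNA polymerase and were tracked through a hybridised Cy3 probe at 37 °C. One- or two-exponential decay fits to per-tile medians, normalised to baseline and to non-cleaving reference variants, gave kobs. kcat and KM came from weighted Michaelis–Menten fits across concentrations.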

glucosamine-6-phosphate [2] = variants of: B1; test: self-cleavage kobs at 10000 uM GlcN6P; higher = faster cleavage; RNA array
Procedure, shortened: as §1

glucosamine-6-phosphate [3] = variants of: B1; test: self-cleavage kobs at 160 uM GlcN6P; higher = faster cleavage; RNA array
Procedure, shortened: as §1

glucosamine-6-phosphate [4] = variants of: B1; test: self-cleavage kobs at 640 uM GlcN6P; higher = faster cleavage; RNA array
Procedure, shortened: as §1

glucosamine-6-phosphate [5] = variants of: B1; test: self-cleavage kobs at 2500 uM GlcN6P; higher = faster cleavage; RNA array
Procedure, shortened: as §1

Variant | self-cleavage kobs at 40 uM GlcN6P (glucosamine-6-phosphate [1]) [s⁻¹] | self-cleavage kobs at 10000 uM GlcN6P (glucosamine-6-phosphate [2]) [s⁻¹] | self-cleavage kobs at 160 uM GlcN6P (glucosamine-6-phosphate [3]) [s⁻¹] | self-cleavage kobs at 640 uM GlcN6P (glucosamine-6-phosphate [4]) [s⁻¹] | self-cleavage kobs at 2500 uM GlcN6P (glucosamine-6-phosphate [5]) [s⁻¹]
AUAAAAUCGCCAGAACUAAAGAAAUGUAGUUGACGGGGCGGAGGUUUAUCGAAUUUUCGGCGGAUGCCUCCAAA [G7U C19A A36G A39C] | < 1e-05 | < 1e-05 | – | – | –
AUAAAAUCGGCUGAACUACAGAAAUGUAGUUGACGAGGAGGAGGUUUAUCGAAUUUUCGGCGGAGGCGUCCAAA [G7U C10G A12U U65G C68G] | 7.58e-05 ± 2.2e-05 | 5.57e-05 ± 1.5e-05 | – | – | –
AUAAAAUCGCCAGAACUACAGAAAUGUAGUUGAAGAGGAGGAGGUUUAUCGAAUUUUCGGCGGAUGCCUCCAAA [G7U C34A] | < 1e-05 | < 1e-05 | < 1e-05 | < 1e-05 | –
AUAAAAUCGUCACAACUACAGAAAUGUAGUUGACGAGGAGGAGGUUUAUCGGAUUUUCGGCGGAUGCCUCCAAA [G7U C10U G13C A52G] | < 1e-05 | – | – | – | –
AUAAAAUGGCCUGAACUACAGAAAUGUAGUUGACGAGGAGGAGGUUUAGCGAAUUUUCGGCGGAUGCCUCCAAA [G7U C8G A12U U49G] | < 1e-05 | < 1e-05 | < 1e-05 | < 1e-05 | < 1e-05
AUAAAAUAGCCAGAACUACAGAAAUGUAGUUGACGAGGAGGAGGUUGAUCGAAUUUUCGUCGGAUGCCUCCAAA [G7U C8A U47G G60U] | < 1e-05 | < 1e-05 | – | – | –
AUAAAAUCGCCAGAAGUACAGAAAUGUAGUUGACGAGGAGGAGGUUUAUCGAAUUUUCGGCGGAUGCCUCCAAA [G7U C16G] | < 1e-05 | < 1e-05 | – | < 1e-05 | –
AUAAAAUCGCCAGAAGUACAGAAAUGUAGUUGACGAGGAGGAGGUUUAUCGAAUUUUCAGCGGAUGCCUCCAAA [G7U C16G G59A] | < 1e-05 | < 1e-05 | – | < 1e-05 | –
AUAAAAUCGCGAGAACUACAGAAAUGUAGUUGACGAGGAGGAGGUUUAUCGAAUUUUCGGCGGAUGCCUCCAAA [G7U C11G] | < 1e-05 | < 1e-05 | < 1e-05 | < 1e-05 | < 1e-05
AUAAAAUCGGCAGAACUACAGAAAUGUAGUUGACGAGGAGGAGGUUUAUCGAAUUUUCGGCGGAUGCGUCCAAA [G7U C10G C68G] | 0.000171 ± 5.8e-05 | 5.21e-05 ± 1.6e-05 | – | – | –
AUAAAAUCGGCAGACCUACAGAAAUGUAGUUGACGACGAGGAGGUUUAUCGAAUUUUCGGCGGAUGCCUCCAAA [G7U C10G A15C G37C] | < 1e-05 | – | – | – | –
AUAAAAUCGACAGAACUACAGAAAUGUAGUUGACGAGGAGGAGGUUUAUCGAAUUUUCGUCGGAUGCCUCCAAA [G7U C10A G60U] | < 1e-05 | – | < 1e-05 | – | < 1e-05
AUAAAAUCGACUGAACUACAGAAAUGUAGUUGACGGGGAGGAGGUUUAUGGAAUUUUCGGCGGAUGCCUCCAAA [G7U C10A A12U A36G C50G] | 0.000144 ± 2.8e-05 | 0.000157 ± 3.1e-05 | – | 0.0003 ± 0.0001 | –
AUAAAAUCGCCAGAACUACAGAAAUGUAGUUGACGAGGAGGAGGUUUAUCGAAUUUUGGGCGGAUGCGUCCAAA [G7U C58G C68G] | 0.000149 ± 4.5e-05 | 0.000116 ± 2.5e-05 | 0.000633 ± 0.00028 | 0.00042 ± 0.00015 | 0.00158 ± 0.00066
